Columns and labels:
Assay in all cases: cell-based or functional assay
[1] = target: HIV-1 Env of pseudovirus Du172.17 (HIV-1)
[2] = target: HIV-1 Env of pseudovirus Du156.12 (HIV-1)
[3] = target: HIV-1 Env of pseudovirus 62357_14_D3_4589 (HIV-1)
[4] = target: HIV-1 Env of pseudovirus REJO4541.67 (HIV-1)
[5] = target: HIV-1 Env of pseudovirus TRO.11 (HIV-1)
[6] = target: HIV-1 Env of pseudovirus Du422.1 (HIV-1)
[7] = target: HIV-1 Env of pseudovirus 3365.v2.c2 (HIV-1)
[8] = target: HIV-1 Env of pseudovirus Q259.d2.17 (HIV-1)
[9] = target: HIV-1 Env of pseudovirus HIV-16055-2.3 (HIV-1)
[10] = target: HIV-1 Env of pseudovirus ZM135M.PL10a (HIV-1)
[11] = target: HIV-1 Env of pseudovirus Ce2010_F5 (HIV-1)
[12] = target: HIV-1 Env of pseudovirus ZM109F.PB4 (HIV-1)
[13] = target: HIV-1 Env of pseudovirus MS208.A1 (HIV-1)
[14] = target: HIV-1 Env of pseudovirus HIV-16845-2.22 (HIV-1)
[15] = target: HIV-1 Env of pseudovirus 1006_11_C3_1601 (HIV-1)
[16] = target: HIV-1 Env of pseudovirus ZM249M.PL1 (HIV-1)
[17] = target: HIV-1 Env of pseudovirus 3415.v1.c1 (HIV-1)
[18] = target: HIV-1 Env of pseudovirus CNE30 (HIV-1)
[19] = target: HIV-1 Env of pseudovirus CNE17 (HIV-1)
[20] = target: HIV-1 Env of pseudovirus 246F C1G (HIV-1)
[21] = target: HIV-1 Env of pseudovirus Ce704809221_1B3 (HIV-1)
[22] = target: HIV-1 Env of pseudovirus 1054_07_TC4_1499 (HIV-1)
[23] = target: HIV-1 Env of pseudovirus Ce0393_C3 (HIV-1)
[24] = target: HIV-1 Env of pseudovirus CAAN5342.A2 (HIV-1)
[25] = target: HIV-1 Env of pseudovirus QH0692.42 (HIV-1)
[26] = target: HIV-1 Env of pseudovirus SC05_8C11_2344 (HIV-1)
[27] = target: HIV-1 Env of pseudovirus 6240_08_TA5_4622 (HIV-1)
[28] = target: HIV-1 Env of pseudovirus Q769.d22 (HIV-1)
[29] = target: HIV-1 Env of pseudovirus ZM197M.PB7 (HIV-1)
[30] = target: HIV-1 Env of pseudovirus Ce1176_A3 (HIV-1)
[31] = target: HIV-1 Env of pseudovirus 0260.v5.c36 (HIV-1)
[32] = target: HIV-1 Env of pseudovirus CNE20 (HIV-1)
[33] = target: HIV-1 Env of pseudovirus HIV-0013095-2.11 (HIV-1)
[34] = target: HIV-1 Env of pseudovirus PVO.4 (HIV-1)
[35] = target: HIV-1 Env of pseudovirus CNE21 (HIV-1)
[36] = target: HIV-1 Env of pseudovirus BF1266.431a (HIV-1)

VRC07 (antibody) was tested, and the IC50 [1] was 0.796 µg/mL, the IC80 [1] was 3.66 µg/mL and the IC50 [2] was 0.041 µg/mL. The IC80 [2] was 0.149 µg/mL, the IC50 [3] was 0.075 µg/mL and the IC80 [3] was 0.256 µg/mL. It also gave an IC50 [4] of 0.011 µg/mL, an IC80 [4] of 0.037 µg/mL and an IC50 [5] of 0.132 µg/mL. For the same substance, the IC80 [5] was 0.456 µg/mL, the IC50 [6] was greater than 50 µg/mL and the IC80 [6] was greater than 50 µg/mL. The IC50 [7] was 0.038 µg/mL, the IC80 [7] was 0.109 µg/mL and the IC50 [8] was 0.024 µg/mL. For the same substance, the IC80 [8] was 0.1 µg/mL, the IC50 [9] was 0.025 µg/mL and the IC80 [9] was 0.135 µg/mL. For the same substance, the IC50 [10] was 0.104 µg/mL, the IC80 [10] was 0.383 µg/mL and the IC50 [11] was 0.131 µg/mL. The IC80 [11] was 0.48 µg/mL, the IC50 [12] was 0.112 µg/mL and the IC80 [12] was 0.389 µg/mL. The IC50 [13] was 0.12 µg/mL, the IC80 [13] was 0.425 µg/mL and the IC50 [14] was 1.21 µg/mL. The IC80 [14] was 6.15 µg/mL, the IC50 [15] was 0.015 µg/mL and the IC80 [15] was 0.046 µg/mL. The IC50 [16] was 0.041 µg/mL, the IC80 [16] was 0.145 µg/mL and the IC50 [17] was 0.036 µg/mL. For the same substance, the IC80 [17] was 0.152 µg/mL, the IC50 [18] was 0.326 µg/mL and the IC80 [18] was 1.08 µg/mL. The IC50 [19] was 0.136 µg/mL, the IC80 [19] was 0.651 µg/mL and the IC50 [20] was 0.286 µg/mL. It also gave an IC80 [20] of 1.04 µg/mL, an IC50 [21] of 0.273 µg/mL and an IC80 [21] of 1.14 µg/mL. For the same substance, the IC50 [22] was 0.239 µg/mL, the IC80 [22] was 1.46 µg/mL and the IC50 [23] was 0.182 µg/mL. For the same substance, the IC80 [23] was 0.634 µg/mL, the IC50 [24] was 0.307 µg/mL and the IC80 [24] was 1.05 µg/mL. It also gave an IC50 [25] of 0.5 µg/mL, an IC80 [25] of 1.86 µg/mL and an IC50 [26] of 0.133 µg/mL. It also gave an IC80 [26] of 0.401 µg/mL, an IC50 [27] of 0.448 µg/mL and an IC80 [27] of 1.54 µg/mL. For the same substance, the IC50 [28] was 0.018 µg/mL, the IC80 [28] was 0.087 µg/mL and the IC50 [29] was 0.307 µg/mL. It also gave an IC80 [29] of 1.27 µg/mL, an IC50 [30] of 0.52 µg/mL and an IC80 [30] of 2.6 µg/mL. The IC50 [31] was 0.448 µg/mL, the IC80 [31] was 1.62 µg/mL and the IC50 [32] was 0.06 µg/mL. The IC80 [32] was 0.129 µg/mL, the IC50 [33] was 0.017 µg/mL and the IC80 [33] was 0.057 µg/mL. For the same substance, the IC50 [34] was 0.063 µg/mL, the IC80 [34] was 0.226 µg/mL and the IC50 [35] was 0.05 µg/mL. For the same substance, the IC80 [35] was 0.222 µg/mL, the IC50 [36] was 0.032 µg/mL and the IC80 [36] was 0.117 µg/mL.

— patent US20240117018A1
